Here are results for one molecule from article PMC12062102, “Dual Targeting of Neuropilin-1 and Glucose Transporter for Efficient Fluorescence Imaging of Cancer” (Molecular Imaging and Biology, 2025).

The subject of data set [1] is NCI-H1299 tumor. Nature of the data set: In vivo IVIS fluorescence imaging, NCI-H1299 tumor-bearing mice. Set-up: species or system Balb/c nude mice. The note with it: 25 μM NGF, 200 μL i.v., n = 3–5. Here is the method:
(§1) The SPF female Balb/c nude mice (4–5 weeks old) were obtained from Changzhou Cavens Laboratory Animal Co., LTD (Changzhou, China). Tumor models were created by subcutaneously injecting 0.5 ~ 1 × 10^7 MDA-MB-231, HCT116 or NCI-H1299 cells in 100 μL PBS into the right forelimb of the nude mice. Imaging studies were conducted once the tumor volume reached approximately 100 mm^3. All animal experiments requiring the use of mice were approved by the animal care committee of Shanghai University (ECSHU 2024–004).
(§2) Animal fluorescence imaging was conducted using an IVIS Imaging spectroscopy system (PerkinElmer Inc., USA). MDA-MB-231, HCT116, and NCI-H1299 tumor-bearing mice (n = 3–5) were intravenously injected with 25 μM NGF (200 μL) via the tail vein. Following injection, mice were anesthetized with a 2% v/v isoflurane/oxygen mixture at a flow rate of […] to maintain stable physiological conditions during imaging. Subsequently, long-term optical imaging observations of tumor-bearing mice were performed using the IVIS Spectrum imaging system (PerkinElmer, USA). Imaging scans were conducted at various time points (1, 2, 4, 6, 8, 12, 24, 36, 48, 60, and 72 h) after NGF administration. The excitation wavelength (λex) was set to 745 nm and the emission wavelength (λem) was set to 840 nm for optimal fluorescence signal acquisition.

Data set [2] concerns NCI-H1299 cells. The data set is described as follows: Confocal fluorescence imaging in NCI-H1299 cells. Format: cell-based, human. The note with it: NCI-H1299 (NRP1- and GLUT1-negative), NGF 2 μM, 1 h. The method, then: (§3) MDA-MB-231, HCT116, and NCI-H1299 cells in logarithmic growth phase were seeded in 6-well plate and incubated at 37 ℃ in a 5% CO2 humidified incubator for 12 h, then the cells were fixed with 4% paraformaldehyde containing 1% TritonX-100 overnight at 4 ℃. Next, cells were treated with NGF (2 μM) for 1 h, stained with DAPI for 5 min, and finally the fluorescent images were captured using laser scanning fluorescence confocal microscopy (Olympus IX51). Images were captured using a U-LH100 HG mercury lamp with a WIY (Cy5 channel) filter and a 200 ms exposure time. A 10 × eyepiece and a 20 × objective were used for a total magnification of 200 × . A scale bar of 50 μm was included for reference.
Cancer cells MDA-MB-231, NCI-H1299 and HCT116 in logarithmic growth phase were harvested and transferred to sterile tubes with DMEM medium at a density of 2 × 10^5 cells per tube. Various concentrations of NGF (0.125, 0.25, 0.5, 1, and 2 μM) were added, and the cells were incubated in a humidified incubator with 5% CO2 at 37 ℃ for 1 h. Subsequently, the cells were resuspended in 0.5 mL of PBS buffer, and about 2 × 10^4 target cells were extracted for flow cytometry analysis (FACS Verse, BD) with FL4 channel, and the mean fluorescence intensity was quantified using FlowJo software.

The test system of data set [3] is HCT116 cells. The data set is described as follows: Flow cytometry / confocal imaging and blocking study in HCT116 cells. Type of data set: cell-based, human. The method, then: as §3
(§4) Cancer cells MDA-MB-231, NCI-H1299 and HCT116 in logarithmic growth phase were harvested and transferred to sterile tubes with DMEM medium at a density of 2 × 10^5 cells per tube. […] Subsequently, the cells were resuspended in 0.5 mL of PBS buffer, and about 2 × 10^4 target cells were extracted for flow cytometry analysis (FACS Verse, BD) with FL4 channel, and the mean fluorescence intensity was quantified using FlowJo software.
(§5) For the blocking study, the cells of HCT116, NCI-H1299, and MDA-MB-231 were pretreated with the D-glucose (50 μM), NRP1 peptide (50 μM), and D-glucose + NRP1 peptide (50 μM) for 30 min. […] Then the fluorescence signals were detected by flow cytometry and microscopy imaging.

A short description of data set [4]: Aqueous stability of NGF in PBS. The note with it: 3 μM in PBS, 37°C, 48 h incubation, UV-vis absorbance A/A0. Format: physicochemical.
How the values of data set [5] were obtained:
Probe NGF (10 μM) was added to a mixture of H2O (0.5 mL) and n-octanol (0.5 mL), shaken thoroughly, and centrifuged for 3 min. The absorbance (A) of NGF in both H2O and n-octanol was measured using a UV-vis absorption spectrometer.

For data set [6], the system named is HCT116 tumor. The data set is described as follows: In vivo IVIS fluorescence imaging, HCT116 tumor-bearing mice. Set-up: species or system Balb/c nude mice. The note with it: 25 μM NGF. Here is the method: as §1, §2
The nature of data set [7]: Photostability of NGF under laser irradiation. Type of data set: physicochemical. The note with it: 3 μM in methanol, laser irradiation 30 min, UV-vis absorbance A/A0.
Data set [8] in a line: Photophysical properties (absorption, emission, ε, ΦF). Type of data set: physicochemical. Here is the method:
To investigate the spectral characteristics of probe, NGF (25 μM) was prepared using methanol, and the NGF stock solution was diluted to various concentrations (0.5, 1, 2, 3, and 4 μM) with both methanol or water as solvents. The absorption spectra at various concentrations were recorded using a UV–vis absorption spectrometer. To better understand how the solvent affects the fluorescence properties of NGF, the fluorescence emission spectra of 4 μM NGF were analyzed in both methanol and water. The molar absorption coefficient (ε), fluorescence quantum yield (ΦF), as well as the stability of NGF were investigated, and the details were provided in the Supporting Information.
where, Ix is the measured integrated emission intensity; η is the refractive index of the solvent; A is the absorbance of the solution; the subscript x denotes the probe; st denotes the reference compound.

In data set [9] the test system is MDA-MB-231 cells. The data set is described as follows: Flow cytometry / confocal imaging and blocking study in MDA-MB-231 cells. Type of data set: cell-based, human. Here is the method:
as §3, §4, §5

The conditions of data set [10]: 3 μM in 10% (v/v) mouse serum, 37°C, 48 h incubation, UV-vis absorbance A/A0. Here is the method:
NGF solution (3 μM) was prepared in PBS and 10% (v/v) mouse serum, and the initial absorbance (A0) was measured. Then NGF was incubated with PBS and mouse serum at 37°C, and the absorbance (A) was recorded at 4, 8, 12, 24, and 48 h, respectively. The stability of the probe was evaluated based on the ratio of A/A0. For the photostability, NGF solution (3 μM) was prepared in methanol, and the initial absorbance (A0) was measured. Then NGF was then subjected to laser irradiation, and the absorbance measurements (A) were recorded at 5, 10, 15, 20, and 30 min, respectively. The stability of the probe was evaluated based on the ratio of A/A0.

The test system of data set [11] is MDA-MB-231 tumor. Nature of the data set: In vivo IVIS fluorescence imaging, MDA-MB-231 tumor-bearing mice. Set-up: species or system Balb/c nude mice. The following applies: 25 μM NGF, 200 μL i.v., imaging up to 72 h. Here is the method: as §1, §2
A short description of data set [12]: In vivo IVIS fluorescence imaging, signal clearance and persistence in tumor-bearing mice. Set-up: species or system Balb/c nude mice. The following applies: 25 μM NGF, 200 μL i.v. The method, then: as §1, §2

Consider `CC(C)C[C@H](NC(=O)[C@H](C)NC(=O)CCOCCOCCOCCOCCn1cc(CCC[N+]2=C(C=CC3=C(Cl)C(=CC=C4N(CCCc5cn([C@H]6C(O)O[C@H](CO)[C@@H](O)[C@@H]6O)nn5)c5ccccc5C4(C)C)CCC3)C(C)(C)c3ccccc32)nn1)C(=O)N[C@@H](CCCCN)C(=O)N[C@@H](C)C(=O)N[C@@H](CC(=O)O)C(=O)N[C@@H](CCCCN)C(=O)O` (some centres unmarked) [NGF], for which the tumor fluorescence intensity result in [1] is recorded as “comparatively weak”. Also, the “cellular fluorescence (confocal)” value in data set [2] is “minimal fluorescence”. Also, the “uptake relative to mono-receptor block conditions” value is recorded as 1.4–1.5 times in data set [3] (HCT116, NGF 2 μM 1 h, pre-treatment 30 min with D-glucose (50 μM) or NRP1 peptide (50 μM), flow cytometry mean fluorescence intensity) and 1.7–2.5 times in data set [9] (MDA-MB-231, NGF 2 μM 1 h, pre-treatment 30 min with D-glucose (50 μM) or NRP1 peptide (50 μM), flow cytometry mean fluorescence intensity). Also, the “cellular internalization (confocal fluorescence)” value in data set [3] (HCT116, NGF 2 μM, 1 h) is “substantial internalization”; in data set [9] (MDA-MB-231, NGF 2 μM, 1 h), “significantly internalized”. Besides, in data set [4], the “absorbance as % of initial absorbance (A0) in PBS” value was 97.7%. Further, the logP in [5] was -0.95 ± 0.07. In data set [6] (200 μL i.v. tail vein, n = 3–5, λex 745 nm / λem 840 nm), the “time post-injection at which tumor could be clearly identified” value amounted to 1 h. Moreover, the “retention in tumor post-injection” value is reported as “at least 72 h” in [6] (200 μL i.v., imaging up to 72 h) and “at least 72 h” in data set [11]. For the same molecule, in data set [7], the “absorbance as % of A0 after laser irradiation” value is given as 56.7%. For the same molecule, the “fluorescence intensity in methanol” value in data set [8] (4 μM in methanol) was determined as 12365 a.u. In [8] (4 μM in methanol), this molecule came in with a maximum absorbance of 1.06. The “absorption peak (λmax) in MeOH” value in [8] (MeOH) stood at 783 nm. The “fluorescence emission peak (λem) in MeOH” value in data set [8] (MeOH, λex = 750 nm) came to 807 nm. The “aggregation in aqueous solution” value in data set [8] (inferred from lower absorbance and fluorescence in H2O than in MeOH) was “some degree of aggregation”. The “extinction coefficient ε in n-octanol” value in data set [8] (n-octanol) was determined as 124367 M⁻¹ cm⁻¹. The “absorbance as % of initial absorbance (A0) in 10% mouse serum” value in data set [10] is given as 95.2%. In addition, the “time for fluorescent signal to clear from non-target organs” value in data set [12] is given as no more than 12 h.

The logP is the decadic logarithm of the partition coefficient of the neutral form, usually between octanol and water. Low readings indicate a more hydrophilic compound, high ones a more lipophilic compound.
